Source: patent US6254870, “Thrombopoietin: IL-3 fusion protein” (G. D. Searle & Co., dated 2001)

Experiments:
human c-mpl-R [1] = biological target: T1, human c-mpl-R (human, UniProt P40238); assay: cell-based or functional assay
human c-mpl-R [2] = biological target: T1, human c-mpl-R; assay: cell-based or functional assay; remark: listed apart in the source

TF1 Proliferation Assay: total counts tritiated thymidine incorporation, 10% supernatants (human c-mpl-R [1]) [total counts] | Bone Marrow Proliferation Assay: Cells/Well after 10 Day Culture of CD34+ enriched cells (human c-mpl-R [2]) [cells/well] | Binder
35600 | < 500 | 1-332 Δ112-115 c-mpl ligand (pMON26451-3) (ligand) SPAPPACDLRVLSKLLRDSHVLHSRLSQCPEVHPLPTPVLLPAVDFSLGEWKTQMEETKAQDILGAVTLLLEGVMAARGQLGPTCLSSLLGQLSGQVRLLLGALQSLLGTQGRTTAHKDPNAIFLSFQHLLRGKVRFLMLVGGSTLCVRRAPPTTAVPSRTSLVLTLNELPNRTSGLLETNFTASARTTGSGLLKWQQGFRAKIPGLLNQTSRSLDQIPGYLNRIHELLNGTRGLFPGPSRRTLGAPDISSGTSDTGSLPPNLQPGYSPSPTHPPTGQYTLFPLPPTLPTPVVQLHPLLPDPSAPTPTPTSPLLNTSYTHSQNLSQEG
115000 | 22500 | 1-153 c-mpl ligand (pMON26448) (ligand) SPAPPACDLRVLSKLLRDSHVLHSRLSQCPEVHPLPTPVLLPAVDFSLGEWKTQMEETKAQDILGAVTLLLEGVMAARGQLGPTCLSSLLGQLSGQVRLLLGALQSLLGTQLPPQGRTTAHKDPNAIFLSFQHLLRGKVRFLMLVGGSTLCVR
60800 | < 500 | 1-153 Δ112-115 c-mpl ligand (pMON26450) (ligand) SPAPPACDLRVLSKLLRDSHVLHSRLSQCPEVHPLPTPVLLPAVDFSLGEWKTQMEETKAQDILGAVTLLLEGVMAARGQLGPTCLSSLLGQLSGQVRLLLGALQSLLGTQGRTTAHKDPNAIFLSFQHLLRGKVRFLMLVGGSTLCVR
122000 | 16000 | 1-332 c-mpl ligand P(46)L, W(200)R (pMON26451-4) (ligand) SPAPPACDLRVLSKLLRDSHVLHSRLSQCPEVHPLPTPVLLPAVDLSLGEWKTQMEETKAQDILGAVTLLLEGVMAARGQLGPTCLSSLLGQLSGQVRLLLGALQSLLGTQLPPQGRTTAHKDPNAIFLSFQHLLRGKVRFLMLVGGSTLCVRRAPPTTAVPSRTSLVLTLNELPNRTSGLLETNFTASARTTGSGLLKRQQGFRAKIPGLLNQTSRSLDQIPGYLNRIHELLNGTRGLFPGPSRRTLGAPDISSGTSDTGSLPPNLQPGYSPSPTHPPTPLLPDPSAPTPTPTSPLLNTSYTHSQNLSQEG
